Assay [1] deals with SelSP1 (PSGL-1 sulfopeptide). Put plainly: SPR; SelSP1 surface (FC3) blocked with 40 µg/mL antibody, then 990 nM CCL27 as competitor; Rep. 3. A general note: SPR reads the build-up and loss of mass on a sensor chip optically.
Assay [2] addresses SelSP1 (PSGL-1 sulfopeptide). Put plainly: SPR; SelSP1 surface (FC2) blocked with 40 µg/mL antibody, then 990 nM CCL27 as competitor; Rep. 3.
For assay [3], the target named is SelSP1 (PSGL-1 sulfopeptide). Put plainly: SPR; SelSP1 surface (FC2) blocked with 40 µg/mL antibody, then 990 nM CCL27 as competitor; Rep. 2.
For assay [4], the target named is SelSP1 (PSGL-1 sulfopeptide). Description: SPR; SelSP1 surface (FC3) blocked with 40 µg/mL antibody, then 990 nM CCL27 as competitor; Rep. 1.
Assay [5] has as its target SelSP1 (PSGL-1 sulfopeptide). Description: SPR (SensiQ Pioneer), antibody captured on Protein G, SelSP1 as analyte, 25 °C, 1:1 model.
In assay [6] the target is SelSP1 (PSGL-1 sulfopeptide). Put plainly: SPR; SelSP1 surface blocked with 40 µg/mL antibody, then 990 nM CCL27 as competitor; average over FC2 and FC3 replicates.
For assay [7], the target named is SelSP1 (PSGL-1 sulfopeptide). Put plainly: SPR; SelSP1 surface (FC2) blocked with 40 µg/mL antibody, then 990 nM CCL27 as competitor; Rep. 1.
Assay [8] has as its target SelSP1 (PSGL-1 sulfopeptide). Description: SPR; SelSP1 surface (FC3) blocked with 40 µg/mL antibody, then 990 nM CCL27 as competitor; Rep. 2.
The target of assay [9] is SelSP1 (PSGL-1 sulfopeptide). Description: SPR; summary sentence in the description; target printed as PSGL-1, but the worked example used the PSGL-1 sulfopeptide SelSP1.

From patent US20260008865A1 come the findings set out here.

B1: Parental antibody (antibody, V domains shown)
VH: DVQLVESGGGLVQPGGSRKLSCAASGFTFSSFGMHWVRQAPEKGLEWVAYISSASSTIYYADTVKGRFTISRDNPKNTLFLQMTSLRSEDTAMYYCASSYGYWGQGTTLTVSS
VL: DVVMTQTPLSLPVSLGDQASISCRSSRSLVHSNGNTYLHWYLQKPGQSPQLLIYKVSNRFSGVPDRFSGSGSGTDFTLKISRVEAEDLGVYFCSQTTHVPLTFGAGTRLELKR
B1: the Percent CCL27 Inhibition in assay [1] came to 47%; in assay [2], 53.5%; in [3], 50.6%; in [4] it was 50.5%; in [7], 57.1%; in assay [8] it was 43.1%. In addition, the Kd (usually a measure of binding affinity in units of concentration) in assay [5] was 16.4 nM; in assay [9], 16.6 nM. In addition, the koff (commonly the rate constant with which the complex falls apart) in assay [5] is 0.00497 s⁻¹. Further, the kon (commonly the rate constant with which the complex forms) in assay [5] was determined as 303000 M⁻¹ s⁻¹. The same molecule showed a Percent CCL27 Inhibition (Avg.) in [6] of 50%.
